The results in this text go back to publication PMC3496014 (Journal of structural biology, 2012).

Test [1] addresses T1, His6-PfAtg3 (P. falciparum 3D7, UniProt C0H519 1-313).
T1 sequence (looked up): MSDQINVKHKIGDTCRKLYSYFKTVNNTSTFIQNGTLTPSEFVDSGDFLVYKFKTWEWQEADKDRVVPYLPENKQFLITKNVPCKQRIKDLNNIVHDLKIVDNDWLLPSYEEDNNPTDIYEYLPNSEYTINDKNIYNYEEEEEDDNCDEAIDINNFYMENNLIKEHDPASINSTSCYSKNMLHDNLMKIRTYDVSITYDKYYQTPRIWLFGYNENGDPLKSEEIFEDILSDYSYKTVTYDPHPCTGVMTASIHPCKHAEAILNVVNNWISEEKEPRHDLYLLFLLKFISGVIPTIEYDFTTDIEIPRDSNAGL
Put plainly: SEC + other: dynamic light scattering.

Test [2] concerns the target His6-PfAtg8 R27E (P. falciparum 3D7, UniProt Q8IJK2 1-124, R27E). Put plainly: pull-down.
For test [3], the target named is His6-PfAtg8 K47E (P. falciparum 3D7, UniProt Q8IJK2 1-124, K47E). Put plainly: pull-down.
In test [4] the target is His6-PfAtg8 L49A (P. falciparum 3D7, UniProt Q8IJK2 1-124, L49A). Put plainly: pull-down.
The target of test [5] is His6-PfAtg8 E44A/K45S/K46A (P. falciparum 3D7, UniProt Q8IJK2 1-124, E44A | K45S | K46A). Put plainly: pull-down.

B1: His6-PfAtg8 wild type (natural protein, P. falciparum 3D7, UniProt Q8IJK2 1-124, looked up)
chain: MPSLKDEVSFENRVAETHKIRSKYPNRIPVVCERANRSNLPIIEKKKFLVPMNMLVGEFKFILHQHINQSAYGSNMKLFRERTIYLFVNNIVPKTGLLMQDLYEMYKDEDGYLYMEYSCESCLG
For B1, in test [1], the “stoichiometry N” value was found to be 1.

B2: MBP-PfAtg3 (enzyme)
chain: T1 sequence (looked up)
On to B2, for which the binding result in test [2], in test [3], in test [4] and in test [5] was “binds” in each case.
